The subject of data set [1] is ctDNA chromatid integration in MM1s, MIA and HCT116 cell lines. Briefly: Effect of reverse transcriptase or integrase inhibitors on ctDNA chromatid integration. In kind it is cell-based, human. To be noted: HCT116 treated prior to adding ctDNA, compared to no treatment control. Here is the method:
To evaluate functionally the role of retrotransposons in horizontal gene transfer of ctDNA, experiments were conducted to test the impact of inhibiting reverse transcriptases or integrases on ctDNA integration. Multiple myeloma (MM1s), pancreatic cancer (MIA), and colon cancer (HCT116) cell lines were treated with the reverse-transcriptase inhibitors zidovudine or didanosine, and with the integrase inhibitor raltegravir prior to adding the ctDNA to culture media.

The test system of data set [2] is MM1s (multiple myeloma) cell genome. Briefly: ctDNA coculture with MM1s cells, whole genome sequencing: genomic insertion sites, transposons at insertion points and SNVs (multiple myeloma). In kind it is cell-based, human. The following applies: for Gene: gene at identified genomic insertion site; for Gene / Location / No. SNP / Chr position: multiple myeloma; for Location / Chr position: identified genomic insertion site; for Location: chromosome; for No. SNP: number of single nucleotide variants (SNVs or SNPs) identified. Here is the method: The integration of ctDNAs into the host cell genome was evaluated. ctDNA was extracted from patient plasma, cultured for 24 hours with cells of a matching cancer cell type or non-matching cancer cell type, and whole genome sequencing was performed. The cell lines used were MM1s (multiple myeloma, MM) and MIA (pancreatic cancer, PC).
Single nucleotide variants (SNVs) unique to the ctDNA that were found in the host cell genome under matching coculture conditions were identified.
The sequence data was used to reconstruct genomic contigs for each experimental condition by de novo assembly. […] Coculture contigs carrying a ctDNA insertion were identified using NucDiff analysis. BLAST alignment analysis further validated the gain of ctDNA fragments in coculture conditions and identified the transition points of ctDNA insertion (FIGS. 3A-3C). […] The remaining 20% inserted into a chromosomal location distinct from their site of origin.
Experiments were designed to identify the presence of transposons in ctDNA fragments. To map ctDNA genomic junctions more precisely, a PACBIO probe was ligated to multiple myeloma and pancreatic cancer ctDNA samples to label their 5′ and 3′ ends. Whole-genome sequencing of DNA from cells with ctDNA genomic integration was done using the Illumina platform. De novo assembly was performed on the sequencing output. ctDNA contigs containing PACBIO adaptor were then matched to those contigs containing inserted ctDNA sequences identified in the coculture experiments. Transposable element on ctDNA sequences at the insertion points (<100 nucleotides from transition point between cell and ctDNA) were detected and classified using RepeatMaster.
A search was conducted for transposons that preferentially target cells of matching tumor types. The lists of transposons identified at the ctDNA insertion point in matching and mismatched coculture conditions were compared (e.g., MM ctDNA with MM cells or PC cells). Transposons were selected that were uniquely or preferentially inserted in the matching conditions.
In multiple myeloma, AluSp, MER11, MER11C, AluJb, and L2a, among other subfamilies of retrotransposons were identified at the MM ctDNA insertion sites (FIG. 5B and TABLE 7).
Whole-genome sequencing and Whole exon sequencing: ctDNA was extracted from 10 MM and 10 PC patients. DNA from CD138 (+) cells and from cell lines used in in vitro experiments (MM1s and MIA) was extracted using Blood & Cell Culture DNA Mini Kit (Quiagen, MD). DNA from […] paraffin embedded pancreatic tumors was obtained using QIAamp DNA FFPE Tissue Kit Print (Qiagen, MD).
After extraction, ctDNA was ligated to the PACBIO adaptor ([…]) using the ABM DNA Library Prep Kit for Illumina Sequencing (Applied Biological Materials Inc. Canada). PACBio-labeled ctDNA and regular ctDNA were subjected to standard methods for library preparation and sequencing using Illumina and Agilent protocols, respectively. Applied Biological Materials Inc. prepared the libraries and performed whole-exon and -genome sequencing. The average target coverage was 50×.
Identification of transposable elements and its nucleotide variants: To determine the locations of transposable-like regions in contigs, sequences were analyzed and transposable elements (TEs) were identified and classified using RepeatMasker version 4.1.0 and the Dfam database (release 3.1) of repetitive DNA families was used as a reference for identifying repeats in ctDNA contig sequences that were part of qualifying structural events. For each repeat sequence identified by RepeatMasker, the overall frequency of the specific repeat (e.g., for AluSp or L1) and their parent class (e.g., SINE) was computed.
Once the TE elements were identified, hit repeats/TE sequences, unique contigs for all samples, and insertion sequence were aligned with MAFFT software version. […]

Turning to `Cc1cn([C@H]2C[C@H](N=[N+]=[N-])[C@@H](CO)O2)c(=O)[nH]c1=O` [zidovudine], the ctDNA chromatid integration entry in data set [1] is listed as “significantly reduced”.
On to `Cc1nnc(C(=O)NC(C)(C)c2nc(C(=O)NCc3ccc(F)cc3)c(O)c(=O)n2C)o1` [raltegravir], for which, in data set [1], the ctDNA chromatid integration result is reported as “significantly reduced”.
`O=c1[nH]cnc2c1ncn2[C@H]1CC[C@@H](CO)O1` [didanosine]: the ctDNA chromatid integration result in data set [1] is “significantly reduced”.

B1: THE1C (nucleic acid, listed as Homo sapiens)
DNA: TGATATGGTTTGGCTGTGTCCCCACCTAAATCTCATCTTGAATTGTAGTTCCCATAATCCCCATGTGTCATGGGAGGGACCCAGTGGGAGGTAATTTAATCCTGGGGGCAGTTACCCTCCTGCTATGTGTGTGTGTGTGTGTGTGTTCTCACGAGATCTGATGGTTTTATAAGGGGCTTTTCCCCCTTCGCTCGGCACTTCTCCTTCCTGCCGCCATGTGAAGAAGGACGTGTTTGCTTCCCCTTCCGCCATGATTGTAAGTTTCCTGAGGCCTCCCCAGCCATGCNGAACTGTGAGTCAATTAAACCTCTTTCCTTTATAAATTACCCAGTCTCGGGTGTGTCTTTATTAGCAGCGTGAGAACGGACTAATACA
modifications: misc_difference 287 a, c, t, g, unknown or other
Regarding B1, the blast orientation entry in data set [2] (TABLE 7, multiple myeloma co-culture, BLAST alignment orientation) is given as “Plus/Minus”. Besides, the blast chr result in data set [2] (TABLE 7, multiple myeloma co-culture, chromosome with the longest result for BLAST analysis of the full contig) is recorded as “chr14”. Also, in data set [2] (TABLE 7, multiple myeloma co-culture, compared with the human reference genome), the Transposon orientation entry is “direct”. In data set [2] (TABLE 7, multiple myeloma co-culture, distance between insertion and the transposon (0 if they overlap)), the Distance from insertion worked out at 0. Moreover, the “Location relative to insertion” value in data set [2] (TABLE 7, multiple myeloma co-culture, location of the transposon relative to the insertion on the contig) is “intersect”.

B2: 3 (nucleic acid, listed as Homo sapiens)
chain: TCTCACCACCTCTACTACTGCCTATCTGCATCTGGGTGCACGTCCTCTGCTATTCCTTCTGTTTCTACAGAAGCTGTCCATATTTCTAAGGCTAATCCCTTGCATTTTGGTACCAGACTTCCCTGACCTACACAAAGATGATCACCCCCCAAAATTGCCTTTCTTTCCTGCATCAAGTTTTTTCTTCTCTACTGTATTATTCCTATTGCACATTAGCCCAAAAAATGCCGTTGTTTTTCCATCGGTAAAAAAAAAAAATAGAGAGAAAAAGAAAAATAATCCATTGCCGCCAATCTATCTTCTAGTCATTTTTCCATTTCTCTGTTCTCCATTCTGCATAAACCATTTTTACTTGAATTGTTTATACTTGCTGTTTACAACAAACCTCCTCTTTCTCTCCACCCCAATCAGATTTTGGTCCACATTCCTCATGCAGTGGTCAGTCCTTGGTCCTCAACCTAGTCTAGCCTGCTTGCTGGTGGGTGTGCTCTCGGGGCATTTGCTTGTGTTTGCACGACAGCTCAGTCCCTCACTTCTCTCAAGTCTTTGCTAATAACACTCTTGCATCCAAGTCTTCCCTGACCTGCTACTTAAAAACAACTCACCCCCACCCCTAGAAATCCCTATCCTCTTCCCTACGCTTTATTTTTCTCCATAATACTTATCACCATGTAGCTGAACATGTATTTTACTCACTTTTTTTTATATTGTCCATCTTCCCTCAGTGAATTGAAAGCTCCATGAGGGCAGGAGGTTTTGTTTATTGTGTTTACTGCTTTATCCCTAGCACCCAGCACAGCATATGTGATATAGTAGACACTCAATACAAATCTGATGTGTGTGTGTCT
Consider B2, for which, in data set [2], the Gene result was “AKAP6”, the Location result is on record as “Chr4” and the “No. SNP” value is given as “Many”.

B3: 22 (nucleic acid, listed as Homo sapiens)
chain: CAGCGCAAGTAATATATCCTGGAATTGGAAGCAGAATGGGAACTATGGACTCAGTGAAGATTGTTCTGGACATTATTTGATTCTTCTTTCTCGCTGCCAATTGGATACTTTTTTTTTTTTTTGAGACAGAGTCT
On to B3, for which, in data set [2], the Gene result is on record as “TBL1XR1”, the Location result is on record as “Chr3”, the Chr position is reported as 176878250 and the “No. SNP” value is 1.

B4: 24 (nucleic acid, listed as Homo sapiens)
chain: GATGAATGCACATATCACAAAAAGTTTCTCAGATTGCTTCTGTCTAGATTTTATGTGAAGTTATTTCCTTTTCTACCATAGAACCCAAAGCACTTATAATGTCCCCTTGCAGATTCTACAAAAAGAATGTTTCAAAACTGCTCAATCAAAAGAAAGGTTCAAATTTGTGAGATGAATGCTCGCATCACCAAGAAGTTTCTCAAAATACTTCTGTCTAGTTTTTATGTGAAGACATTTCTTTTTCCGTGATAGGTCTCAAAATGATCAAAATTTCCACTTGCAAATTCTACAAAAAGAGAGTTTCAAAGCTGCTCAATCAAAAGAAAGGTTTATATCTGTGAGATGAACACACACTTCACAAAGCAGTTTCTAAGATTTCTTCTGCCTAGATTTTATGTAATGATATTTCCTTTTCTACCATACTTTGCAAACTGCTCCAAATGTCCACCTGTAGATTCTACAAAAACAGTGTTTCCAAACTGCTCAATCAAAAGAAAGGTTAACTCTGTGAGATGAACTCACACATCACAAAGAAGTTTCTCAGAATTCTTCTGTCTAGTTCTAATGTGAAGATATTTCCTTTTGGACCAGAGGCCCCAAGGCTATCGAAATGTCCCCTTGTAGATTCTACAAAAAGAGTATTTCAAAACTGGTCCATCAAGAGAAAGGCTCAACTCTGGGAGATGAATGCACACATCACAAAGAAGTTTCTCAGAATGCTTCTATCTAGTTTTTACATGAAGCTATTTCCTTTTCCACCATAAGCCTCAAAGCGCTCCAAATGTCCACTTGCAGGTTCTGCAAAAAGAGAGTTTCCAAAGTTCTCAATCAAAAGAAACGGTTAACTCTGTGAGATAAATGCACACATCACAAAGAAGTTTCTCAGAATTTTTCTGTCTAGTTTTTGTGTGAAGATATTTCATTTTC
Take B4: in data set [2], the Gene entry is on record as “AK311573”, the Location result is reported as “Chr21”, the Chr position worked out at 10749086 and the “No. SNP” value turned out to be 49.

B5: 23 (nucleic acid, listed as Homo sapiens)
chain: TTCATCTTACAGAGATAAACATTTATCTTGATTCAGCAGTTTGGAAACACTGTTTTTATCCATTCTGTGAATGGACATTTGGGAGTTCATTAAGGCACACATGAAAAGGTGTATATCCCAGGGTAAAAACTAGAAGGAAGCTATCTGAGAAACCACTCTGTGGTGTGTGCATTGATCTCGCTGATTTAAAGCTTTCTTTTGATTCAGCAGTTTGGAATCACTGTTTGTGCTCATTCTGTAAATGGATATTTGGGAGCTCATTGAGGTCAATGGCAAAAAAGTGAATAACTGAGGATAAAAACTAGAAATAAGCTATCTGAGAAACGGATTTATGATGTGTGCATTCATCTCGCAAAATTAAACATTTCTTTTCCTTCAACAGTTTGGAAACACGGTTTTTATAGGATCTGCAAAGGGATATTTTGGAGCACATTGAGGTCTATGGTGTAAAAGAAAATATCTTCAGATAAAACCTAGAAAGAAGCTTTCTGAGAAATTGCATTTTGATGTGTGCATTCATCTCACAGAGTTAATACTTTTTTTTGATTCACCAGTGTGGATACACTGTTTTTGTCCATTCTGCTAATGGACCTTTGGGGGCTCATTTAGGCCAATGGCAAAAAAGTGAATATCCCAGGATAAAAACTAGAAGGAAGGTATCTGAGAAACTGCTATGTGATGTGTGCCATCATCTCACAGTCTTAAAAGTTTCTTTTCATTCACCAGTTTGGAAACAGTGTTTTTGTAGAATCTGCAAAGTCATATTTTTGAGT
With B5, in data set [2], the Location entry was “Chr16”, the Chr position turned out to be 32534349 and the “No. SNP” value came to 9.

Values taken from US20250241939A1, “NUCLEIC ACID-BASED DELIVERY SYSTEMS AND USES THEREOF” (Kodikaz Therapeutic Solutions, Inc., priority 2022, published 2025).
